This note sets out measurements from article doi:10.1101/2020.06.04.133876 (bioRxiv, 2020).

Sequences and labels used below:
B1: GST-OtDUB C-terminal truncation (275-913) (domain or fragment)
chain: SAEVSSKEELYVPKINQVEESLEAQLKYINEHIASQLMQIVKNSNGEIDCNSSNFQEEVSSLLNSRSKETTSLATIEQNFNEIIQQLRKEKVNEERVSAIELQLKANRAVLEAKLSNTEDVKSLVNQKIKEETLQAIPFFGNAAERANFKKHLAHFVKLPDNSYSLLKQKEKRHPFCNIIGANAVKFFSPQSNAVYLNTSAYNQITSGNLKAFEAAVTTDINNLMLKEAAVTIDAVSPNKEAVESGKDLSKTDELAELKEVKSNLETELKILKERLVKKVTSNLETELKFFKGRLVQELMQIVKNENGRIDHTSKNWQESASVLLNSQEKGAVSLAEVERAVSKMTQKLRDQKVSEEEVVNIESKLKFERASLEAKLFDDNEIKELINKRIKEDALRAIPFLGSDSESFMEKISPFVKLPDDSYSLLKANDKHHPFQNILYSNALKFFADSSDIGYLNDDSLKNLTPENLNAFEQAVAADIDKLMSRDVTLNVSDLKSYVANSPNPDLIADYLALEWQIHTPGLKGLYDDLQASHQLQLNELENKHAKQLLSDLANLSKLPSMRGILPEFKDEFYNEIDKKPEERSVEYKNFINKCSELPDAMLQPAKCSAQALLEFNKYERDLNSFKQGVFCAIDNYK
notes: OtDUB (ORF OTT_1962), Orientia tsutsugamushi Ikeda isolate; pGEX6P1 construct; source: E. coli Rosetta DE3, purified (glutathione resin)
B2: OtDUBGEF (residues 548-759), His-tagged construct (domain or fragment)
chain: ERLVKKVTSNLETELKFFKGRLVQELMQIVKNENGRIDHTSKNWQESASVLLNSQEKGAVSLAEVERAVSKMTQKLRDQKVSEEEVVNIESKLKFERASLEAKLFDDNEIKELINKRIKEDALRAIPFLGSDSESFMEKISPFVKLPDDSYSLLKANDKHHPFQNILYSNALKFFADSSDIGYLNDDSLKNLTPENLNAFEQAVAADIDKLM
notes: source: E. coli BL21(DE3), purified (Ni-NTA, Superdex 75)
B3: GST-OtDUBGEF N590A/E593A (domain or fragment)
chain: B2 chain with N43A, E46A
notes: OtDUB (ORF OTT_1962), Orientia tsutsugamushi Ikeda isolate; also called switch II (N590A/E593A) mutant; source: E. coli Rosetta DE3, purified (glutathione resin)
B4: GST-OtDUBGEF E561A (domain or fragment)
chain: B2 chain with E14A
notes: OtDUB (ORF OTT_1962), Orientia tsutsugamushi Ikeda isolate; also called switch I (E561A) mutant; source: E. coli Rosetta DE3, purified (glutathione resin)
B5: Cdc42 (residues 1-177), recombinant (domain or fragment)
chain: not shown

Numbering of substitutions follows the chain as printed. Numbers in names are those of the source.

Experiment [1] has as its target T1, Rac1 (residues 1-177), recombinant (human, UniProt P63000 1-177). Description: pull-down; GST-tagged OtDUB fragments (20 μM) as bait and Rac1 (60 µM) as prey, 50 mM Tris-HCl pH 7.5, 150 mM NaCl, 0.1 mM TCEP, glutathione resin 1 h at 4°C; Coomassie. Conditions: both partners purified.
In experiment [2] the target is T1, Rac1 (residues 1-177), recombinant. Description: ITC. Conditions: both partners purified.
For experiment [3] the target is unchanged. Description: cell-based or functional assay.
Experiment [4] concerns the target B2. Description: ITC. Particulars: both partners purified.

Regarding B1, the binding result in experiment [1] is on record as “binds”.
The Kd is the concentration at which binding is half-saturated. On to B2, for which the Kd in experiment [2] was about 5 µM. In experiment [3], the “kcat/KM of BODIPY-GDP dissociation from Rac1 with increasing amounts of OtDUBGEF” value is 260000 M⁻¹ s⁻¹.
On to B3, for which, in experiment [1], the binding result was “binds”.
The same measure, in the same setting: to B4 belongs “binds”.
Turning to B5, the Kd in experiment [4] is about 16 µM.
